By kon is commonly meant a measure of how fast the partners come together. By koff is commonly meant the rate constant with which the complex falls apart. Low readings indicate a long-lived complex, high ones a short-lived complex. The Kd is the concentration at which binding is half-saturated.

kon, koff and Kd data for four molecules are collected here from US20250383350, “ANALYTE DETECTION USING APTAMERS” (The Regents of the University of Michigan, published 2025).

Data set [1] concerns the target T1, VEGF165 (Homo sapiens, UniProt P15692-4 P15692-4:27-191). Briefly: single-molecule TIRF. Conditions: tags: Abcam ab9571; captured by biotinylated anti-VEGF165 IgG (Bio-Rad); chain copies: 2; label: 3'-Cy5.
Data set [2] deals with T1, VEGF165. Briefly: single-molecule TIRF; same buffer as t22 G->A. The following applies: tags: Abcam ab9571; captured by biotinylated anti-VEGF165 IgG (Bio-Rad); chain copies: 2; label: 3'-Cy5.
The target of data set [3] is T2, IL-8 (CXCL8), C-terminally biotinylated, directly surface-captured (Homo sapiens, UniProt P10145 P10145:28-99). The data set can be described thus: single-molecule TIRF; direct IL-8 capture; 25% horse serum, 21 C; kon 2.08e6, koff 0.55. The following applies: tags: C-terminal biotin; Chemotactics B-CXCL8-2 ug; immobilized on streptavidin; label: 3'-Cy5. An excerpt:
(§1) To systematically assess the effect of aptamer size on the kinetics of binding to the small (8.4 kDa) protein IL-8, two different antigen capture strategies were used: direct capture, in which C-terminally biotin labelled IL-8 was immobilized directly on the surface by the biotin-streptavidin interaction; and antibody mediated capture, in which non-biotinylated IL-8 was captured on the surface by a surface-immobilized biotinylated monoclonal antibody (FIG. 7A). […] To gain more quantitative insight, association and dissociation rate constants were calculated from the dwell time distributions in the aptamer-unbound and -bound states, respectively, and are shown in Table 2.

The target in data set [4] is T3, IL-8 (CXCL8), captured by monoclonal antibody (Homo sapiens, UniProt P10145 P10145:28-99). Briefly: single-molecule TIRF; antibody-mediated capture; 25% horse serum, 21 C; kon 0.99e6, koff 2.50. The following applies: tags: Bio-Rad BR-1098; captured by biotinylated anti-IL-8 EPR19358-108; label: 3'-Cy5. The protocol: (§2) SiMREPS assays of recombinant antigens-All sample handling was performed in GeneMate low-adhesion 1.7-mL microcentrifuge tubes, and dilutions were performed in 25% horse serum, 0.75×PBS, pH 7.4, and 7.5 mg/mL BSA. The slide surface was washed with 100 μL of T50 buffer (10 mM Tris-HCl, 50 mM NaCl, 1 mm EDTA, pH 8.0) for 10 minutes followed by the addition of 40 μL 1 mg/mL streptavidin. After 10 minutes, excess streptavidin was removed, and the sample chamber washed three times with 100 μL of 1×PBS. Next, the coverslip was coated with the biotinylated capture antibody by adding 40 μL of a solution containing 10 nM of biotinylated capture antibody in 1×PBS buffer and incubating for 30 minutes. […]
as §1

Data set [5] has as its target T2, IL-8 (CXCL8), C-terminally …. Briefly: single-molecule TIRF; direct IL-8 capture; 25% horse serum, 21 C; kon 5.68e6, koff 0.50. The following applies: tags: C-terminal biotin; Chemotactics B-CXCL8-2 ug; immobilized on streptavidin; label: 5'-Cy5.
Source text: as §1

Data set [6] concerns the target T3, IL-8 (CXCL8), captured by monoclonal …. The data set can be described thus: single-molecule TIRF; antibody-mediated capture; 25% horse serum, 21 C; kon 4.48e6, koff 1.17. The following applies: tags: Bio-Rad BR-1098; captured by biotinylated anti-IL-8 EPR19358-108; label: 5'-Cy5. As for the experimental part:
as §2, §1

Data set [7] has as its target T2, IL-8 (CXCL8), C-terminally …. The data set can be described thus: single-molecule TIRF; direct IL-8 capture; 25% horse serum, 21 C; kon 3.21e6, koff 0.54. The following applies: tags: C-terminal biotin; Chemotactics B-CXCL8-2 ug; immobilized on streptavidin; label: 3'-Cy5.
Source text: as §1

Data set [8] addresses T3, IL-8 (CXCL8), captured by monoclonal …. Briefly: single-molecule TIRF; antibody-mediated capture; 25% horse serum, 21 C; kon 2.29e6, koff 2.32. The following applies: tags: Bio-Rad BR-1098; captured by biotinylated anti-IL-8 EPR19358-108; label: 3'-Cy5. The protocol:
as §2, §1

T3 sequence (P10145 28-99, one chain of several): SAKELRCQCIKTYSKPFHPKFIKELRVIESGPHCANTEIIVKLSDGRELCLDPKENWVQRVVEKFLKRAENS
T2 sequence (P10145 28-99, one chain of several): as above
T1 sequence (P15692 other isoform, or with tags, fused parts or gaps): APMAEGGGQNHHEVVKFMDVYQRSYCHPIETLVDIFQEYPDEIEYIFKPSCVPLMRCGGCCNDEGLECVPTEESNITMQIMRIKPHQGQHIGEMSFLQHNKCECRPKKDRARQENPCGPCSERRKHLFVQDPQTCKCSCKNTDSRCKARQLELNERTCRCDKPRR

B1: t22 (SEQ ID NO 4) (ssRNA)
RNA: GCGGUAGGAAGAAUUGGAAGCGC
modifications: 2'-F at all pyrimidines
In turn, B1 came in with a kon with VEGF165 [1] of 220000 M⁻¹ s⁻¹. In addition, the koff in the data set with VEGF165 [2] is 0.02 s⁻¹.

B2: 8A-44 (SEQ ID NO 1) (ssRNA)
RNA: GGGGGCUUAUCAUUCCAUUUAGUGUUAUGAUAACCUCUCCCAUA
modifications: 2'-F at C and U (printed i2FC/i2FU up to position 36; text states all pyrimidines)
Consider B2, for which the dissociation constant (Kd) was determined as 264 nM in data set [3] and 2520 nM in data set [4].

B3: 8A-30 (SEQ ID NO 3) (ssRNA)
RNA: GGGUUAUCAUUCCAUUUAGUGUUAUGAUAA
modifications: 2'-F at all pyrimidines
Turning to B3, the Kd in data set [5] was determined as 88 nM; in data set [6], 261 nM.

B4: 8A-35 (SEQ ID NO 2) (ssRNA)
RNA: GGGGGCUUAUCAUUCCAUUUAGUGUUAUGAUAACC
modifications: 2'-F at all pyrimidines
As to B4, the results for the Kd in data set [7] and in data set [8] were 168 nM and 1010 nM, respectively.
